Assay results from publication PMC12328585 (Nature Communications, 2025).
Substitutions are numbered along the chain they refer to. Names and notes keep the numbering of the source.

B1: non-tagged Net4ΔC (gift from the Koch lab) (domain or fragment, mouse)
chain: CEKACNPRMGNLALGRKLRADTMCGQNATELFCFYSENADLTCRQPKCDKCNAAHSHLAHPPSAMADSSFRFPRTWWQSAEDVHREKIQLDLEAEFYFTHLIMVFKSPRPAAMVLDRSQDFGKTWKPYKYFATNCSATFGLEDDVVKKGAICTSRYSNPFPCTGGEVIFRALSPPYDIENPYSAKVQEQLKITNLRVRLLKRQSCPCQINDLNAKPHHFMHYAVYDFIVKGSCFCNGHADQCLPVEGFRPIKAPGAFHVVHGRCMCKHNTAGSHCQHCAPLYNDRPWEAADGRTGAPNECRTCKCNGHADTCHFDVNVWEASGNRSGGVCNNCQHNTEGQHCQRCKPGFYRDLRRPFSAPDACKACSCHPVGSAILPFSSVTFCDPSNGDCPCKPGVAGPHCDRCMVGYWGFGDYGCRPCDCAGSCDPLTGDC
B2: γ1ΔC (N-terminal fragment of laminin γ1), human, C-terminally flag-tagged (domain or fragment)
chain: QAAMDECTDEGGRPQRCMPEFVNAAFNVTVVATNTCGTPPEEYCVQTGVTGVTKSCHLCDAGQPHLQHGAAFLTDYNNQADTTWWQSQTMLAGVQYPSSINLTLHLGKAFDITYVRLKFHTSRPESFAIYKRTWEDGPWIPYQYYSGSCENTYSKANRGFIRTGGDEQQALCTDEFSDISPLTGGNVAFSTLEGRPSAYNFDNSPVLQEWVTATDISVTLNRLNTFGDEVFNDPKVLKSYYYAISDFAVGGRCKCNGHASECMKNEFDKLVCNCKHNTYGVDCEKCLPFFNDRPWRRATAESASECLPCDCNGRSQECYFDPELYRSTGHGGHCTNCQDNTDGAHCERCRENFFRLGNNEACSSCHCSPVGSLSTQCDSYGRCSCKPGVMGDKCDRCQPGFHSLTEAGCRPCSCDPSGSIDECNIETGRCVCKDNVEGFNCERCKPGFFNLESSNPRGCTP
modifications: N-glycans at N60 and N134
B3: γ1ΔC D266R (domain or fragment)
chain: QAAMDECTDEGGRPQRCMPEFVNAAFNVTVVATNTCGTPPEEYCVQTGVTGVTKSCHLCDAGQPHLQHGAAFLTDYNNQADTTWWQSQTMLAGVQYPSSINLTLHLGKAFDITYVRLKFHTSRPESFAIYKRTREDGPWIPYQYYSGSCENTYSKANRGFIRTGGDEQQALCTDEFSDISPLTGGNVAFSTLEGRPSAYNFDNSPVLQEWVTATDIRVTLNRLNTFGDEVFNRPKVLKSYYYAISDFAVGGRCKCNGHASECMKNEFDKLVCNCKHNTYGVDCEKCLPFFNDRPWRRATAESASECLP
B4: γ1ΔC Y147R (domain or fragment)
chain: B3 chain with Y114R, R233D
B5: γ1ΔC R149E (domain or fragment)
chain: B3 chain with R116E, R233D

How the values were obtained:
Test in all cases: ELISA
[1] = biological target: non-tagged Net4ΔC (gift from the Koch lab) (mouse) (UniProt Q9JI33)
[2] = biological target: recombinant mouse laminin 111 (Lm111) (mouse, UniProt P19137 25-3083; P02469 22-1786; P02468 34-1607)
[3] = biological target: B1

## γ1ΔC D285R (from UniProt P11047 37-341) (domain or fragment)
[1]
  Kd: 1.57 nM

## B1
[2]
  Kd: 0.39 ± 0.07 nM

## B2
[3]
  Kd: 2.93 ± 0.51 nM

## B3
[3]
  Kd: 4 ± 0.4 nM

## B4
[3]
  Kd: 2.28 ± 0.43 nM

## B5
[3]
  Kd: 1.89 ± 0.2 nM
